Results: the nanobody polyreactivity screen of Harvey et al. (2022)

Assay: yeast display, Sf9 membrane polyspecificity reagent, FACS + sequencing; frameworks hold sequencing errors
Summary of the method: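 After 36–48 hours of galactose induction, yeast (Saccharomyces cerevisiae BJ5465) displaying a synthetic nanobody library were stained at 4 °C for 1 hour with 10% biotinylated, detergent-solubilized Sf9 membrane reagent. Streptavidin microbeads enriched the stained cells before FACS sorting into low and high (top ~1%) gates on anti-HA and streptavidin fluorescence. Each clone's polyreactivity label reflects its gate of origin.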

| Sequence | polyreactivity (PSR sort gate) |
| --- | --- |
| QVQLVESAGGLVQAGGSLRLICAASGLIFYRNTMGWYRQAPGKERELVAAISVSGGSTNYADSVKGRFTISRDNAKNTVYLQMNILKPEDTAVYFCATRVNYGYYYWGQGTQVTVSS | high polyreactivity |
| QVQLVESAGGLVQAGGSLRLICAASGRIFGGNTRGWYREAPGKERELGASIRSRGGRTNYADSLNGRFTISRDTAKNTVYLQMNSLQPEDTSVYYCDATQIYRFDYWGQGTQVTVSS | low polyreactivity |
| QVQLVESAGGLVQAGGSLRLICAATGRIYEIYAMGWYRQAPGTERELVATIDSGGSTNYADSVKGRFTISRDNAKNTVYLQMNSLQPEDTAVYYCAGGNPFYDSIGYDYWGQGTQVTVSS | low polyreactivity |
| QVQLVESAGGLVQAGGSLRLSCAASGFIFDVYAMGWYRQAPGKERELVAAISVSSTNYADSVKGRFTISRDNAKNTVYLQMNSLKPEDTAVYYCAADTYTYFLASYLYGQYDYWGQGTQVTVSS | low polyreactivity |
| QVQLVESAGGLVQAGGSLRLSCAASGFIFPRYAMGWYRQAPGKERELVAAISYSGGSTYYADSVKGRFTISRDNAKNTVYLQMNSLKPEDTAVYYCNAYFLSQYQRAYRDDYWGQGTQVTVSS | high polyreactivity |
| QVQLVESAGGLVQAGGSLRLSCAASGFTFVYYVMGWYRQAPGKERELVAAINAGGGSTYYADSVKGRFTISRDNAKNTVYLQMNSLIPEDTAVYYCIARVRVRLGRNWSSYYDWGQCTQVTVSS | high polyreactivity |
| QVQLVESAGGLVQAGGSLRLSCAASGIIFVENAMGWYRQAPGKERELVAAISWDGGSTYYADSVKGRFTISRDNAKNTVYLQMNSLNPEDTAVYYCAADLTISYSQEYYYWGQGTQVTVSS | low polyreactivity |
| QVQLVESAGGLVQAGGSLRLSCAASGLIFAVYAKGLYRQAPGKEREFLAAITGTGSSTYYADSVKGRFTISRDNAKNTVYLQMNSLKPEDTAVYYCNAYVYDWIPYYHIDHDYWGQGTQVTVSS | low polyreactivity |
| QVQLVESAGGLVQAGGSLRLSCAASGLIFEYNAMGWYRQAPGKERELVAAITTNGGSTYYADSVKGRFTISRDNAKNTVYLQINSLKPEDTAVYYCAALGLHQVIEYDYWGQGTQVTVSS | low polyreactivity |
| QVQLVESAGGLVQAGGSLRLSCAASGRIFPRYAMGWYRQAPGKERELVAAINTSGGRTYYADSVKGRFTISRDYAKNTVYLQMNSLKPEDTAVYFCAADYRSRYDYWGQGTQVTVSS | high polyreactivity |
| QVQLVESAGGLVQAGGSLRLSCAASGRIFTNNAMGWYRQAPGKERELVAAISRSGGRTYYADTVKGRFTISRDNAKNTVYVQMNSLKPEDTAVSYCAALGPYGSARRKYGYWGQGTQVTVSS | high polyreactivity |
| QVQLVESAGGLVQAGGSLRLSCAASGRIFWDYAMGWYRQAPGKERELVATITQNDGSTYYADSVKGRFTISRDNAKNTVYLQMNSLKPEDTAVYYCAAYLLGWFTIKYDYGGQGTQVTVSS | low polyreactivity |
| QVQLVESAGGLVQAGGSLRLSCAASGRTFDAYAMGWYRQAPGKERELVATITSGGGTYYADSVKGRFTISRDNAKNTVYLLMNSLTPEDTAVYYCNKRYVVSRKYDYWGQGTQVTVSS | low polyreactivity |
| QVQLVESAGGLVQAGGSLRLSCAASGRTFGGYAMGWYRQAPGKERELVASITSGGSTYYADSVKGRFTISRDNAKNTVYLEMNSLKPEDTAVYYCAADTYFETSTRAIPSNDYWGQGTQVTVSS | low polyreactivity |
| QVQLVESAGGLVQAGGSLRLSCAASGRTFIGNAMGWYRQAPAKERELVAGISYRGGSTYYADSVKGRFSFSRDNAKNTVYLQMNSLKPEDTAVYYCAAPGRGGYYYWGQGTQVTVSS | high polyreactivity |
| QVQLVESAGGLVQAGGSLRLSCAASGRTFTCNAMGWYRQAPGKERELVAAISYSGGSTYYADSVKGRFTISRDNAKNTVYLQMNSLKPEDTAVYNCAVLGTPYGLNDYWGQGTQVTVSS | high polyreactivity |
| QVQLVESAGGLVQAGGSLRLSCAASGRTLTFKTMGWYRQAPGKERELVAGISYSGGSTYYADSVKGRFTISRDNAKNTVYLQMNSLKPEDTAVYYCNAVRVYRRRYDSWGQGTKVTVSS | high polyreactivity |
| QVQLVESAGGLVQAGGSLRLSCAASGSIFPFYAMRWYRQAPGKERELVATINFSGGSTYYADSVKGRFTISRDNAKNTVYLQMNSLKPEDTAVYYCAASYGAKYIVLYDYWGQGTQVTVSS | low polyreactivity |
| QVQLVESAGGLVQAGGSLRLSCAASGSIFPWNAMGWYRQAPGKERELVAAISYSGTRTYYADSVKGRFTISRDNAKNTVYLQMNSLKPVDTAVYYCNARGYTRSYVKYDYWGQGTQVTVSS | high polyreactivity |
| QVQLVESAGGLVQAGGSLRLSCAASGSIFQGNARGWYRQAPGKERELVAAISQSGGRTYYADSVKGRFTISRDNAKNTVYLQMISLKPEDTAVYYCNTTKVYRLRFDYWGQGTQVTVSS | low polyreactivity |
| QVQLVESAGGLVQAGGSLRLSCAASGSIFSTYVMGWYRQAPGKERELVAAISRRGGSTYYADSVKGRFTISRDNAKNTVYLQMNSLKPEDTAVSYCAADGTVGRRDYWGQGTQVTVSS | high polyreactivity |
| QVQLVESAGGLVQAGGSLRLSCAASGSIFYGNAMGWYRQAPGKERELVASITYSGGTTNYADSVKGRFTISRDTAKNTVYLQMNSLKPEDTAVYYCAADAIPDSVWYWEYDYWGQGTQVTVSS | low polyreactivity |

| Sequence | polyreactivity (PSR sort gate) |
| --- | --- |
| QVQLVESAGGLVQAGGSLRLSCAASGSIFYYYAMGWYRQAPGKERELVATISSSSGSTYYADSVKGRFTISRDNAKYTVYLQMNRLKPEDTAVYYCATVSGSVWQRWVYANYDFWGQGTQVTVSS | low polyreactivity |
| QVQLVESAGGLVQAGGSLRLSCAASGSIIADNAMGWDRQSPGTERELVAAITGGDSTYYADSVKGRFTISRDNAKNTVYLQMNSLKPEDTAVYYCNADRFRGRTVDGDYWGQGTQVTVSS | low polyreactivity |
| QVQLVESAGGLVQAGGSLRLSCAASGSISGYAMGWYRQAPGKQRELVAAISRRGGSTYYADSVKGRFTISRDNEKNTVYLQMNSLKPEDTAVYFCAADPYTRQPNSDRYYWGQGTQVTVSS | high polyreactivity |
| QVQLVESAGGLVQAGGSLRLSCAASGSTFDYYAMGWYRQAPGKERELVASITWGDGSTYYADSVKGRFTISRDNAKNTVYLQMNSLKPEDTAVYYCNADDTQLESYAPGHGYDYWGQGTQVTVSS | low polyreactivity |
| QVQLVESAGGLVQAGGSLRLSCAASGSTFPFYAMGWYRPAPGKERELVAAISASGVRTYYADSVKGRFTISRDNAKNTVYLQMNSLKPEDTAVDYCNRVYSTSRITQYEFDYWGQGTQVTVSS | low polyreactivity |
| QVQLVESAGGLVQAGGSLRLSCAASGSTFPKYAMGWSRQAPGKERELVASISVTTGSTYYADSVKGRFTISRDNAKNTVYLQMNSLKPEDTAVYYCAKRTYSRKFRGAYNYGGQGTQVTVSS | high polyreactivity |
| QVQLVESAGGLVQAGGSLRLSCAASGSTFQSYAMGWYRQAPGKDRELVAAISSGGITYYADSVKGRFTISRDNAKNTVYLQMTSLIPEDTAVYYCAKVPTYLIYNRYSRYDYWGQGTQVTVSS | low polyreactivity |
| QVQLVESAGGLVQAGGSLRLSCAASGSTFSRYAMGWSRQAPGNERELVAAISSGGNTYDADSVKGRFTISRDNAKNTVYLQMNSLKPEDTPVYYCIADRYTWYPWTKCFYYWGQGTHVTVSS | high polyreactivity |
| QVQLVESAGGLVQAGGSLRLSCAASGSTFSYNAMGWYRQAPGKEREFVAAISSRGGNTFYADSVKGRFTISRDNAKNTVYLQMNSLKPEDTAVYYCAARFNRPYDYWGQGTQVTVSS | low polyreactivity |
| QVQLVESAGGLVQAGGSLRLSCAASGSTFYFNAMGWYRQAPGKERELVAAISGGGGTNYADSVKGRFTISRDNAKNTVYLQMTSLKPEDTAVYYCAARNRGLRLSNYFGGNYNRDYWGQGTQVTVSS | low polyreactivity |
| QVQLVESAGGLVQAGGSLRLSCAASGSTFYLNAMGWYRQAPGKERELVATINSSGSTYYADSVKGRFTISRDNAKNTVYLQMNSLKPEDTAVYYCNTVDSYVRSDYWGQGTQVPVSS | low polyreactivity |
| QVQLVESAGGLVQAGGSLRLSCAASGSTFYRYAMGGSRQAPGKERELVAAISSSGGRTYYADSVKGRFTISRDNAKNTVYLQMNSLKPEDTAVYFCATRVGDFHRGKRKRYEYWGQGTQVTVSS | high polyreactivity |
| QVQLVESAGGLVQAGGSLRLSCAASGSTFYRYAMGWYRQAPGKERELVAAISTRGGSTYYADSVKGRFTISRDNAKNTVYLQMNSLKPEDTAVYYCAAKSGSPDDYDYWGQGTQVTVSS | high polyreactivity |
| QVQLVESAGGLVQAGGSLRLSCAASGSTFYTYAMGWYRQAPGKERELVAAISWSGGSTYYADSVKGRFTISRDNAKNSVYLQMNSLKPEDTAVYYCAARRVKYISLDYWGQGTQVTVSS | low polyreactivity |
| QVQLVESAGGLVQAGGSLRLSCAASGSTYTSYAMGWYRQAPGKERELVAAITRNGGTTYYADSVKGRFTLSRDNAKNTVYLQMNSLKPEDTAVYYCNAPHYYYITSDRRFDYWGQGTQVTVSS | low polyreactivity |
| QVQLVESAGGLVQAGGSLRLSCAASGTIFALYAMGWYRQAPGKERELVARITRGGGSTYYADSVKGRFTISRDNAKNTVYLQMNSLKPEDTAVYYCAAARWSQYRTWMNYWGQGTQVTVSS | high polyreactivity |
| QVQLVESAGGLVQAGGSLRLSCAASGYIFSDNTMGWYRQAPGKERELVAVITSGTSTSYADSVKGRFTISRDNAKNTVYLQMNSLKPEDSAVYYAARTGQYKTYGEYDYWGQGTQVTVSS | low polyreactivity |
| QVQLVESAGGLVQAGGSLRLSCAATGLIFKYYAMVWYRQAPGKEREMVATITRGGGSTYYADSVKGRFTISRDNAKNTVYFQMNSLKPEDTAVYYCAKRTSWKYGYWGQGTQVTVSS | high polyreactivity |
| QVQLVESAGGLVQAGGSLRLSCADSGSIFRYYAMGWYRQAQGQERELVAAISYSGGRTYYADSVKGRFTISRDNAKNTVYLQMNSLKPEDTAVYYCNAGAGKRGYDYWGQGTQVTVSS | low polyreactivity |
| QVQLVESAGGLVQAGGSLRLSCAPSGFIFKHNAMGWYRQAPGKERECVAAISWSGDSTYYADSVKGRFTISRDNAKNTVYLQMNSLKPEDTAVYYCAAVRALRKVRDYYYWGQGTQVTVSS | high polyreactivity |
| QVQLVESAGGLVQAGGSLRLSCAPSGSIFVAYAMGGYLQAPGKERELVAAISWRSGSTYYADSVKGRFTISRDNAKNTVYLQMNSLKPEDTAVYYSAAKQDQDYYWGQGTQVTVSS | low polyreactivity |
